Positions count from the first letter of the chain named. Where no end group is shown, it is not given here. GalNAc = O-linked GalNAc (Tn antigen, GalNAc-alpha1-O-Ser/Thr)
T1: CD44v6 glycopeptide … with O-linked GalNAc on threonine 5 and serine 12 (human)
T1 construct: Synthetic glycopeptide; also called CD44v6-Tn(S + T); Tn-glycosylated CD44v6 glycopeptide
T1 peptide: GYRQT(GalNAc)PKEDSHS(GalNAc)TTGTAAA

T2: CD44v6 peptide glycoform with Tn on serine only (human)
T2 construct: also called CD44v6-Tn(S)
T2 peptide: GYRQTPKEDSHS(GalNAc)TTGTAAA

B1: humanized 4C8 candidate 2 (4C8-HV1-46-A/LV7-43-A) (antibody, V domains shown)
VH: QVQLVQSGAEVKKPGASVKVSCKASGYTFTSYWMHWVRQAPGQGLEWIGNIYPRSGTTNYDGYFKSRATLTVDTSTSTAYMELSSLRSEDTAVYFCTRSGYDYPFVYWGQGTLVTVSS
VL: QAVVTQEPSLTVSPGGTVTLTCRTSTGAVSIRNYANWVQEKPGQAFRGLIGGTNNRAPWTPARFSGSLLGDKAALTLSGVQPEDEAEYFCALLYSNYWVFGGGTKLTVL
notes: also called Molecule Number 2
B2: humanized 4C8 candidate 1 (4C8-HV1-18-A/LV7-43-A) (antibody, V domains shown)
VH: B1 VH with S84R, E89D
VL: B1 VL
notes: also called Molecule Number 1
B3: humanized 4C8 candidate 3 (4C8-HV1-69-A/LV7-43-A) (antibody, V domains shown)
VH: B1 VH with A16S
VL: B1 VL
notes: also called Molecule Number 3
B4: humanized 4C8 candidate 5 (4C8-HV1-18-A/LV7-46-A) (antibody, V domains shown)
VH: B1 VH with S84R, E89D
VL: B1 VL with V80A
notes: also called Molecule Number 5
B5: humanized 4C8 candidate 6 (4C8-HV1-46-A/LV7-46-A) (antibody, V domains shown)
VH: B1 VH
VL: B1 VL with V80A
notes: also called Molecule Number 6
B6: humanized 4C8 candidate 7 (4C8-HV1-69-A/LV7-46-A) (antibody, V domains shown)
VH: B1 VH with A16S
VL: B1 VL with V80A
notes: also called Molecule Number 7
B7: 4C8 monoclonal antibody (antibody, V domains shown)
VH: QVQLQQPGSELVRPGASVKLSCKASGYTFTSYWMHWVKQRPGQGLEWIGNIYPRSGTTNYDGYFKSKATLTVDTSSSTAYMQLSSLTSEDSAVYFCTRSGYDYPFVYWGQGTLVTVSA
VL: QAVVTQESALTTSPGETVTLTCRTSTGAVSIRNYANWVQEKPDHLFTGLIGGTNNRAPGVPARFSGSLIGDKAALTITGAQPEDEAIYFCALLYSNYWVFGGGTKLTVL
notes: Murine hybridoma antibody; also called 4C8 mAb; mAb 4C8
B8: 2B2 antibody (antibody, V domains shown)
VH: EVQLVESGGGLVKPGGSLKLSCAASGFTFSSYAMSWVRQSPERRLEWVAEISSGGSYTYYPDTVTGRFTISRDNAKNTLYLEMSSLRSEDTAMYYCARTVGEDWYFDVWGAGTTVTVSS
VL: DIQMTQTTSSLSASLGDRVTISCRASQDISHYLNWYQQKPDGAVKLLIYSTSRLHSGVPSRFSGSGSGTDYSLTISNLEQEDIATYFCQQGYTLPFTFGSGTKLEIK
notes: Murine monoclonal antibody
B9: 18G9 antibody (antibody, V domains shown)
VH: DVQLVESGGGLVQPGGSRKLSCAASGFTFSSFGMHWVRQAPEKGLEWVAYISSGSSTIYYADTVKGRFTISRDNPKNTLFLQMTSLRSEDTAMYYCARGSYRAMDYWGQGTSVTVSS
VL: QIVLTQSPALMSASPGEKVTMTCSASSSVNYMFWYQQKPRSSPKPWIYLTSNLASGVPARFSGSGSGTSYSLTISSMEAEDAATYYCQLWSSNPFTFGSGTKLEIK
notes: Murine monoclonal antibody
B10: 1D12 antibody (antibody, V domains shown)
VH: DVQLVESGGGLVQPGGSRKLSCAASGFTFSSFGIHWVRQAPEKGLEWVAYISSGSSTIYYADTVKGRFTISRDNPKNTLFLQMTSLRSEDTAMYYCARGSKVVAKSRGYWYFDVWGAGTTVTVSS
VL: DVVVTQTPLFLPVSFGDQVSISCRSSQSLANNYGITYLSWYLHRPGQSPQLLIYGISNRFSGVPDRFSGSGSGTDFTLKISTIKPEDLGMYYCLQGTHQPWTFGGGTKLEIK
notes: Murine monoclonal antibody
B11: 10H4 antibody (antibody, V domains shown)
VH: QSLEESGGRLVTPGTPLTLTCTASGFTINTYHMGWFRQAPGKGLQYIGIVSHDVGTYYATWAKGRFTISKTSSTTVDLRMPSPTTEDTATYICARGPGYWTFNLWGQGTLVTVSS
VL: AQVLTQTPASVSAAVGGTVTINCQASQSVYNNNQLSWYQQKPGQPLKQLIYKASTLASGVPSRFKGSGSGSQFTLTISDLECDDAATYFCAGGYKGDIHPFGGGTEVVVK
notes: Rabbit monoclonal antibody

What was measured:
[1] = biological target: T1, CD44v6 glycopeptide … with O-linked …; test: BLI (Octet); biotinylated peptide on biosensor, antibody in solution
Protocol: (§1) The affinities of humanized 4C8 candidates 1-8 against the CD44v6 glycopeptide and a MUC1 glycopeptide were measured using by bio-layer interferometry (BLI) using an Octet system. The peptides were immobilized onto the biosensor by biotin (ligand) and antibodies were in solution (analyte). Candidate 8(4C8-HV7-4-1-A/LV7-46-A) was most similar to the original […] antibody and was selected for further testing. Table 13 summarizes the dissociation constants (KD) for the noted humanized 4C8 candidates against the glycopeptides.

[2] = biological target: Tn-glycosylated CD44 (human) (UniProt P16070); test: ELISA, antibody fixed at 1 ug/mL, coated antigen CD44_10-G(S1T1)-BSA titrated
[3] = biological target: T3, MUC1 glycopeptide (MUC1-Tn) (UniProt P15941 138-197, limits assumed, Tn (GalNAc) glycosylated; sites not stated in the examples); test: BLI (Octet); biotinylated peptide on biosensor, antibody in solution
T3 sequence (P15941 138-197 limits assumed): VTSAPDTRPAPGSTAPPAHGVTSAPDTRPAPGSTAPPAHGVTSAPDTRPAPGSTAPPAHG
Protocol: as §1

[4] = biological target: T3, MUC1 glycopeptide (MUC1-Tn); test: Biacore, column 'Affinity (Biacore)', row MUC1-Tn
[5] = biological target: T1, CD44v6 glycopeptide … with O-linked …; test: BLI (Octet); biotinylated peptide on biosensor, antibody in solution; Table 13 Octet run with the humanized candidates; 4C8-cAb (mouse) as reference
Protocol: as §1

[6] = biological target: T1, CD44v6 glycopeptide … with O-linked …; test: SPR (Biacore); Biacore, not Octet
[7] = biological target: T1, CD44v6 glycopeptide … with O-linked …; test: BLI (Octet), apparent affinity with avidity factored in
[8] = biological target: T2, CD44v6 peptide glycoform with Tn on …; test: BLI (Octet)
[9] = biological target: T1, CD44v6 glycopeptide … with O-linked …; test: hybridoma screening (ELISA, flow cytometry, immunofluorescence)

| Binder | Kd [1] [nM] | binding result [9] | other results |
| --- | --- | --- | --- |
| B1 | 194 |  |  |
| B2 | 191 |  | EC50 (read off the curve) [2]: 0.02 µg/mL |
| B3 | 161 |  |  |
| B4 | 177 |  |  |
| B5 | 169 |  | binding result [3]: no binding (tested: affinity was below the detection limits) |
| B6 | 183 |  | EC50 (read off the curve) [2]: 0.02 µg/mL; binding result [3]: no binding (tested: affinity was below the detection limits) |
| B7 |  |  | EC50 (read off the curve) [2]: 0.02 µg/mL; Kd [4]: > 400 nM; Kd [5]: 163 nM; Kd [6]: 128 nM; Kd [7]: 7.9 nM; Kd [8]: 6.4 nM |
| B8 |  | binds |  |
| B9 |  | binds |  |
| B10 |  | binds |  |
| B11 |  | binds |  |

From patent US20250326855A1 (GO THERAPEUTICS, published 2025)
